Residue numbers refer to the chain shown, from its start.
B1: mAb 2F35 (antibody, IgG1, V domains shown)
VH: EVQLQQSGAELVRPGALVKLSCKASGFNIKDYYIHWVKQRPEQGLEWIGWIDPENGNTIFDPKFQGRASITADTSSNTAYLQLSSLTSEDTAVYYCAGRWYAMDYWGQGTSVTVSS
VL: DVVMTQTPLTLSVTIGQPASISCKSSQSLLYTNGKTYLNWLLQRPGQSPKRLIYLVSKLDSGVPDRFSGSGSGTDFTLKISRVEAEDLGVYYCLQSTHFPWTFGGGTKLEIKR
notes: Murine mIgG1, kappa light chain
B2: mAb 2F22 (antibody, IgG1, V domains shown)
VH: QVQLKQSGPGLVQPSQSLSITCTVSGFSLTNYGVHWVRQSPGKGLEWLAVIWRGGSIDYNAAFMSRLSITKDNSKSQVFFKMNSLQADDTAIYYCAKNSHGNYVGYAMDYWGQGTSVTVSS
VL: GIVMTQSQKFMSTTVGDRVSITCKASQSVGPAVAWYQQKPGQSPKLLIYSASNRYTGVPDRFTGSGSGADFTLTISNLHSEDLADYFCQQYTSYPTFGGGTKLEIKR
notes: as for B1
B3: mAb 2F3 (antibody, IgG1, V domains shown)
VH: B2 VH with T30S, N31S, A49G, I57T, Y59F, L67V, I69F
VL: DIVMTQSQKFMSTTVGDKVSIPCKASENVGAAVAWYQQKPGQSPTLLIYSASNRYTGIPDRFTGSGSGTDFTLTIRTVQSEDLADYFCQQYTNYPTFGGGTKLEIKR
notes: as for B1
B4: mAb 1F56 (antibody, V domains shown)
VH: DVQLQESGPGLVKPSQSLSLTCTVSGYSITSDYAWNWIRQFPGNKLEWMGYISYSGSTSYNPSLKSRISITRDTSKNQFFLQLNSVTTEDTATYYCARWAYDGPWGQGTLVTVSA
VL: QIVLSQSPALLSASPGEKVTMTCRASSSVSHMHWYQQKPGSSPKPWIYATSNLASGVPARFSGSGSGTSYSLTITRVEAEDAATYYCQQWSSNPFTFGSGTKLEIKR
notes: murine antibody from hybridoma
B5: mAb 1F91 (antibody, IgG1, V domains shown)
VH: B4 VH
VL: B4 VL
notes: as for B1
B6: FXa (enzyme)
chain 1: ANSFLEEMKKGHLERECMEETCSYEEAREVFEDSDKTNEFWNKYKDGDQCETSPCQNQGKCKDGLGEYTCTCLEGFEGKNCELFTRKLCSLDNGDCDQFCHEEQNSVVCSCARGYTLADNGKACIPTGPYPCGKQTLER
chain 2: IVGGQECKDGECPWQALLINEENEGFCGGTILSEFYILTAAHCLYQAKRFKVRVGDRNTEQEEGGEAVHEVEVVIKHNRFTKETYDFDIAVLRLKTPITFRMNVAPACLPERDWAESTLMTQKTGIVSGFGRTHEKGRQSTRLKMLEVPYVDRNSCKLSSSFIITQNMFCAGYDTKQEDACQGDSGGPHVTRFKDTYFVTGIVSWGEGCARKGKYGIYTKVTAFLKWIDRSMKTRGLPKAKSHAPEVITSSPLK
B7: Fab 0295 (Fab, V domains shown)
VH: B2 VH
VL: B2 VL
notes: Chimeric Fab of mAb 2F22; heavy chain truncated after the first cysteine of the human IgG4 hinge
B8: Fab 0296 (Fab, V domains shown)
VH: B2 VH
VL: B2 VL
notes: Chimeric Fab of mAb 2F22; heavy chain truncated after the human IgG4 hinge lysine; also called anti-TFPI2F22 Fab

Molecular target: T1, human TFPIα (human, UniProt P10646 29-304)
T1 construct: recombinant full-length TFPIα in the assays; also called TFPI alpha; full-length TFPIα
Experiment: SPR Biacore T200; mAb captured on anti-mouse Ig; TFPI as analyte; 1:1 model
From the text: (§1) Binding interaction data were obtained by means of Surface Plasmon Resonance in a Biacore T200 instrument. Polyclonal rabbit anti-mouse immunoglobulin (Mouse Antibody Capture Kit, GE Healthcare) was immobilized to a series S CM4 sensor chip (GE Healthcare) in flow-cells 1-4 using the amine coupling protocol available with the Biacore T-200 control software version 2.0 (GE Healthcare) and the reagents provided with the Amine Coupling Kit (GE Healthcare). The relevant mouse monoclonal antibody was captured in flow cell 2, 3, or 4 at a fixed concentration. Different concentrations of human TFPIα or TFPI (1-79) were tested by diluting the sample in running buffer (10 mM HEPES, pH 7.4, 300 mM NaCl, 5 mM CaCl₂, 0.05% Surfactant P20, 1 mg/ml BSA). Each sample was assayed using 300 seconds of contact time followed by 420-600 seconds of dissociation time at 30 μl/min flow rate. A buffer blank was also assayed. The sensor surface was regenerated with 10 mM Glycine pH 1.7 either for 180 sec at 30 μl/min flow rate or with two cycles each of 30 seconds at 30 μl/min flow rate.
(§2) The Biacore T200 Evaluation software (version 2.0) was used to analyse the data. Determination of binding constants (kₐ, kd, KD) was obtained assuming a 1:1 interaction of TFPI and the monoclonal antibody of interest.

Compared with B1, B2 is 9.1-fold lower in Kd: 6.27 nM for the first, 0.688 nM for the second. The second binds more tightly here.

Going from B3 to B4, the Kd rises from 0.448 nM to 9.81 nM (22-fold). The first binds more tightly here.

B5 gave a Kd of 10 nM.

First: B1
Second: B3
The koff of the first is 18-fold higher: 0.00141 s⁻¹ for the first, 7.69e-05 s⁻¹ for the second.

B4 and B5 are within 1.5-fold of each other in koff: 0.00361 s⁻¹ for the first, 0.00349 s⁻¹ for the second.

B1 and B3 are within 1.5-fold of each other in kon: 224000 M⁻¹ s⁻¹ for the first, 172000 M⁻¹ s⁻¹ for the second.

B4 and B5 are within 1.5-fold of each other in kon: 368000 M⁻¹ s⁻¹ for the first, 347000 M⁻¹ s⁻¹ for the second.

Molecular target: T2, human TFPI (1-79) (human, UniProt P10646 29-107)
T2 construct: Acidic N-terminal region and KPI-1 domain
Experiment: as above
From the text: as §1, §2

Going from B1 to B2, the Kd falls from 13.3 nM to 0.965 nM (14-fold).

Compared with B3, B4 is 24-fold higher in Kd: 0.561 nM for the first, 13.5 nM for the second.

Work on B5 yielded a Kd of 15.1 nM.

First: B1
Second: B3
The koff of the first is 16-fold higher: 0.00251 s⁻¹ for the first, 0.000154 s⁻¹ for the second.

B4 and B5 are within 1.5-fold of each other in koff: 0.00505 s⁻¹ for the first, 0.005 s⁻¹ for the second.

B1 and B3 are within 1.5-fold of each other in kon: 188000 M⁻¹ s⁻¹ for the first, 274000 M⁻¹ s⁻¹ for the second.

B4 and B5 are within 1.5-fold of each other in kon: 375000 M⁻¹ s⁻¹ for the first, 330000 M⁻¹ s⁻¹ for the second.

Molecular target: T1, human TFPIα
Experiment: cell-based or functional assay

Going from B1 to B2, the “Thrombin peak height (Peak); thrombin generation in FVIII-neutralised plasma + 20 nM TFPIα, 200 nM antibody” value rises from 0 nM to 23.7 nM.

First: B3
Second: B5
The “Thrombin peak height (Peak); thrombin generation in FVIII-neutralised plasma + 20 nM TFPIα, 200 nM antibody” value of the first is higher: 20.9 nM for the first, 0 nM for the second.

Molecular target: T1, human TFPIα
Experiment: cell-based or functional assay
Remark: another data set of the same source

Compared with B1, B2 is 13-fold higher in “Thrombin peak height (Peak); thrombin generation in FVIII-neutralised plasma + 5 nM TFPIα, 10 nM antibody” value: 3.6 nM for the first, 46.5 nM for the second.

Going from B3 to B4, the “Thrombin peak height (Peak); thrombin generation in FVIII-neutralised plasma + 5 nM TFPIα, 10 nM antibody” value falls from 28.6 nM to 3.7 nM (7.7-fold).

B5 was tested, and the “Thrombin peak height (Peak); thrombin generation in FVIII-neutralised plasma + 5 nM TFPIα, 10 nM antibody” value was 3.6 nM.

First: B1
Second: B2
The “Thrombin peak height (Peak); thrombin generation in FVIII-neutralised plasma, no TFPIα added (plasma TFPI), 10 nM antibody” value of the first is 3.3-fold lower: 30.4 nM for the first, 100 nM for the second.

Going from B3 to B4, the “Thrombin peak height (Peak); thrombin generation in FVIII-neutralised plasma, no TFPIα added (plasma TFPI), 10 nM antibody” value falls from 88.4 nM to 35.2 nM (2.5-fold).

For B5, the “Thrombin peak height (Peak); thrombin generation in FVIII-neutralised plasma, no TFPIα added (plasma TFPI), 10 nM antibody” value was 34.6 nM.

Compared with B1, B2 is 6.2-fold lower in “time to peak (ttPeak); thrombin generation in FVIII-neutralised plasma + 5 nM TFPIα, 10 nM antibody” value: 70.3 min for the first, 11.3 min for the second.

First: B3
Second: B4
The “time to peak (ttPeak); thrombin generation in FVIII-neutralised plasma + 5 nM TFPIα, 10 nM antibody” value of the first is 3.5-fold lower: 13.8 min for the first, 47.8 min for the second.

With B5 the “time to peak (ttPeak); thrombin generation in FVIII-neutralised plasma + 5 nM TFPIα, 10 nM antibody” value was 51.8 min.

B1 and B2 are within 1.5-fold of each other in “time to peak (ttPeak); thrombin generation in FVIII-neutralised plasma, no TFPIα added (plasma TFPI), 10 nM antibody” value: 9.6 min for the first, 9.1 min for the second.

B3 and B4 are within 1.5-fold of each other in “time to peak (ttPeak); thrombin generation in FVIII-neutralised plasma, no TFPIα added (plasma TFPI), 10 nM antibody” value: 9.3 min for the first, 8.9 min for the second.

B5 was tested, and the “time to peak (ttPeak); thrombin generation in FVIII-neutralised plasma, no TFPIα added (plasma TFPI), 10 nM antibody” value was 9 min.

Molecular target: T1, human TFPIα
Experiment: SPR Biacore T200; TFPIα held by captured mAb 2F48

In the case of B6, the “fold decrease of the affinity for TFPI to FXa, against TFPI bound to mAb 4F110” value is reported as < 10 fold.

Molecular target: T1, human TFPIα
Experiment: SPR Biacore T200; Fab captured on Human Fab Binder; TFPIα as analyte; 1:1 model; 25 °C
Experimental: Human Fab Binder (Human Fab Capture Kit, GE Healthcare) was immobilized to a series S CM4 sensor chip (GE Healthcare) in flow-cells 1-4 at 9000-10000 response units (RU) using the amine coupling protocol available within the Biacore T-200 control software (GE Healthcare) and the reagents provided with the Amine Coupling Kit (GE Healthcare). […] Different concentrations of human TFPIα were tested by diluting the sample in running buffer (10 mM HEPES, pH 7.4, 300 mM NaCl, 5 mM CaCl₂, 0.05% Surfactant P20, 1 mg/ml BSA). Each sample was assayed using 300 seconds of contact time followed by 600 seconds of dissociation time at 50 μl/min flow rate. A buffer blank was also assayed. The sensor surface was regenerated with 10 mM Glycine pH 2.1 with two cycles each of 30 seconds at 50 μl/min flow rate. The analysis temperature was 25° C. and the sample compartment temperature 10° C.
as §2

First: B7
Second: B8
The Kd of the first is 1.8-fold lower: 0.41 nM for the first, 0.72 nM for the second. The first binds more tightly here.

Molecular target: T1, human TFPIα
Experiment: SPR Biacore T200; TFPIα held by captured mAb 2F22

B6 was tested, and the “fold decrease of the affinity for TFPI to FXa, against TFPI bound to mAb 4F110” value was > 30 fold.

Molecular target: T1, human TFPIα
Experiment: cell-based or functional assay
Remark: another data set of the same source

Going from B1 to B2, the “FXa activity (%); FXa generated after 30 min by FVIIa/Innovin/FX with 4 nM TFPIα, 64 nM antibody” value rises from 18.3% to 40.5%.

Going from B3 to B4, the “FXa activity (%); FXa generated after 30 min by FVIIa/Innovin/FX with 4 nM TFPIα, 64 nM antibody” value falls from 36.6% to 18.4%.

B5 was tested, and the “FXa activity (%); FXa generated after 30 min by FVIIa/Innovin/FX with 4 nM TFPIα, 64 nM antibody” value was 13.9%.

Molecular target: T1, human TFPIα
Experiment: cell-based or functional assay
Remark: another data set of the same source

First: B1
Second: B2
The “FVIIa/sTF activity (%); 150 nM TFPIα, 200 nM antibody” value of the first is lower: 61.4% for the first, 88.3% for the second.

First: B3
Second: B5
The “FVIIa/sTF activity (%); 150 nM TFPIα, 200 nM antibody” value of the first is higher: 88.6% for the first, 82.2% for the second.

Compared with B1, B2 is higher in “FXa activity (%) after 100 min incubation; 4 nM TFPIα, 20 nM antibody” value: 4.2% for the first, 60.8% for the second.

Going from B3 to B5, the “FXa activity (%) after 100 min incubation; 4 nM TFPIα, 20 nM antibody” value falls from 58.1% to 5.1%.

Molecular target: T1, human TFPIα
Experiment: cell-based or functional assay
Remark: another data set of the same source

First: B1
Second: B2
The “FXa activity (%); remaining FXa amidolytic activity after 40 min, 32 nM mAb pre-incubated with 8 nM TFPIα” value of the first is lower: 13.4% for the first, 50.4% for the second.

Compared with B3, B4 is lower in “FXa activity (%); remaining FXa amidolytic activity after 40 min, 32 nM mAb pre-incubated with 8 nM TFPIα” value: 48.9% for the first, 5.5% for the second.

In the case of B5, the “FXa activity (%); remaining FXa amidolytic activity after 40 min, 32 nM mAb pre-incubated with 8 nM TFPIα” value is reported as 5.8%.

From patent US20160152729A1 (Novo Nordisk, published 2016)
